± gives the uncertainty stated by the source.
Test: protein stability index of a GFP-peptide fusion (yeast GPS) (PSI 1-4); higher = more stable; sorted into four equal gates, so the index is relative within each strain
In short: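 Tiled 17-residue yeast protein peptides were fused downstream of GFP in a plasmid that also expresses Cherry, and the pooled library was carried in yeast. Mid-log cultures in leucine-free medium were sorted into four equal gates by GFP/Cherry fluorescence ratio, and plasmids from each gate were PCR-amplified and Illumina-sequenced, with reads assigned to strains by barcodes. The protein stability index for each peptide was each gate's read frequency times its gate number, summed.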

Sequence | protein stability index (doa10∆) | protein stability index (pdr5∆) | protein stability index (san1∆) | protein stability index (ubr1∆)
LADSLDRCVDPEDPYFN [DIS3] | 3.05 ± 0.095 | 2.64 ± 0.079 | 3.35 ± 0.076 | 3.4 ± 0.059
SVSPQMNAILTDVKLTL [SMD1] | 2.85 ± 0.047 | 2.85 ± 0.062 | 2.83 ± 0.04 | 3 ± 0.057
HELSRAELEELEEFEFK [SMD2] | 3.26 ± 0.072 | 3.3 ± 0.071 | 3.42 ± 0.059 | 3.45 ± 0.055
LERIVQIMQNPTHYKIP [RPS18A] | 2.61 ± 0.1 | 3.1 ± 0.11 | 2.9 ± 0.065 | 2.74 ± 0.12
PNLGPQLWLNSSGDFDD [GRR1] | 2.97 ± 0.16 | 3.16 ± 0.22 |  | 
PNVCNMKQYRDFLGVAS [PRP28] | 1.99 ± 0.14 | 2.26 ± 0.091 | 2.37 ± 0.077 | 1.99 ± 0.072
KAGKVAVVVRGRYAGKK [RPL27A] | 2.19 ± 0.083 | 2.17 ± 0.053 | 2.19 ± 0.097 | 1.78 ± 0.086
TDQSTEEEKSVDASPND [CSL4] | 2.88 ± 0.2 | 2.8 ± 0.21 |  | 3.06 ± 0.17
KGSSLASAASEAIRDPK [SSN8] | 2.43 ± 0.053 | 2.62 ± 0.063 | 2.65 ± 0.065 | 2.99 ± 0.049
TDIKQFLELTRRADVKT [RPL38] | 2.95 ± 0.17 | 3.29 ± 0.17 |  | 
GTSQNYGTATADDADIE [MED1] | 3.22 ± 0.071 | 3.29 ± 0.073 | 3.08 ± 0.058 | 3.24 ± 0.061
TQTESKKEENETISNVA [SNF2] | 3.07 ± 0.056 | 3.1 ± 0.048 | 2.98 ± 0.045 | 3.19 ± 0.038
TGNNNNIATQQNMQQSL [GAL11] | 2.06 ± 0.048 | 2.49 ± 0.077 | 2.55 ± 0.11 | 2.59 ± 0.052
TPGEVASKAIVQMAKIL [MCD1] | 3.26 ± 0.14 | 3 ± 0.11 |  | 
KEDHPLEFYKDKFFNEV [SIR3] | 3.21 ± 0.086 | 3.2 ± 0.05 | 3.34 ± 0.055 | 3.43 ± 0.084
PAEHPFISAARYKPKSH [RPC37] | 2.99 ± 0.1 | 3.04 ± 0.082 | 2.66 ± 0.064 | 3.13 ± 0.066
ANVEILAVEDKPSPIDS [CSL4] | 2.98 ± 0.095 | 2.97 ± 0.13 | 2.57 ± 0.15 | 3.12 ± 0.063
PEQGEEPMKQLNATKIS [YAR002W/NUP60] | 3.15 ± 0.12 | 2.2 ± 0.09 | 2.5 ± 0.14 | 2.48 ± 0.11
EWKSNHKKKRSNAAGAD [SRB8] | 1.33 ± 0.13 | 1.72 ± 0.2 | 1.5 ± 0.17 | 1.83 ± 0.054
EAGASAELDDCRGVSEN [RPO21] | 3.47 ± 0.11 | 3.54 ± 0.15 | 3.26 ± 0.08 | 3.6 ± 0.13
FSPDGHIFQVEYALEAV [PRE6] | 3 ± 0.057 | 3.07 ± 0.054 | 3.1 ± 0.035 | 3.18 ± 0.037
NSAVNNAISNTQDDFTT [SRP54] | 3.42 ± 0.1 | 3.07 ± 0.07 | 3.04 ± 0.064 | 3.31 ± 0.045
YARFKNDFFPGEVVYLR [ITC1] | 3.29 ± 0.083 | 1.99 ± 0.069 | 2.58 ± 0.1 | 3.22 ± 0.091
SIIKAKLPLLNESLIPL [YML103C/NUP188] | 1.68 ± 0.06 | 2.18 ± 0.067 | 1.84 ± 0.082 | 1.99 ± 0.05
GYGSNKKTKFLSPSGHK [RPL32] | 2.4 ± 0.081 | 2.64 ± 0.09 | 2.62 ± 0.14 | 1.63 ± 0.092
IISSNENALIELKNELA [YIL149C/MLP2] | 2.53 ± 0.15 | 2.93 ± 0.077 | 2.71 ± 0.14 | 3.07 ± 0.12
ENELVITSIPKPLTENC [RMP1] | 3.42 ± 0.14 | 3.4 ± 0.11 | 3.39 ± 0.066 | 3.1 ± 0.07
KLLKGATLYIPKALRFD [FAS2] |  | 2.79 ± 0.22 | 2.88 ± 0.13 | 

Sequence | protein stability index (doa10∆) | protein stability index (pdr5∆) | protein stability index (san1∆) | protein stability index (ubr1∆)
EPMKQLNATKISPSAPS [YAR002W/NUP60] | 2.73 ± 0.075 | 2.91 ± 0.083 | 2.96 ± 0.062 | 2.77 ± 0.078
MRFNIEIIADWIWDMNV [BRR2] | 2.61 ± 0.066 | 2.12 ± 0.075 | 2.7 ± 0.088 | 2.39 ± 0.041
GLNNDFLFQNINFERID [GRR1] | 2.09 ± 0.05 | 2.16 ± 0.057 | 2.19 ± 0.055 | 2.12 ± 0.042
NFNDIPPSVTLQDWQRE [YDL088C/ASM4] | 2.51 ± 0.078 | 2.31 ± 0.054 | 2.44 ± 0.077 | 3.09 ± 0.053
ERSLRQKYNLLHVLPTL [SNM1] | 1.22 ± 0.07 | 1.3 ± 0.13 | 2.03 ± 0.28 | 1.35 ± 0.17
TQVNILKENNAILQKSL [YIL149C/MLP2] | 2.44 ± 0.06 | 2.55 ± 0.062 | 2.63 ± 0.076 | 2.65 ± 0.059
KKLSINSAARNIQHLLY [PRE7] | 2.68 ± 0.051 | 2.88 ± 0.062 | 2.81 ± 0.044 | 2.8 ± 0.056
EKPLTPLKYTKLIAAAE [SNF6] | 1.25 ± 0.23 | 1.27 ± 0.12 | 1.22 ± 0.21 | 1.15 ± 0.2
SNADTNQNSDMKKKLEL [SRB8] | 3.14 ± 0.13 | 3.21 ± 0.15 | 2.75 ± 0.11 | 3.31 ± 0.17
NLTIHFGGEKGKRIREN [FAS1] | 3.39 ± 0.1 | 3.01 ± 0.18 | 3.05 ± 0.092 | 3.31 ± 0.075
ATQSGGVRPFGVSLLIA [PRE8] | 1.29 ± 0.071 | 1.62 ± 0.071 | 1.4 ± 0.17 | 1.51 ± 0.064
SMIEKGGDWERRNRYKT [RPN7] | 3.01 ± 0.14 | 3.43 ± 0.22 |  | 
IKLDRWLMEGSYQKAWD [RPN12] | 2.72 ± 0.11 | 2.8 ± 0.098 | 2.9 ± 0.11 | 2.68 ± 0.11
FEIDGDVIHFEDSSILQ [PCI8] | 3.15 ± 0.083 | 3.46 ± 0.072 | 3.04 ± 0.066 | 3.46 ± 0.044
ANSQIQAYEEIISSNEN [YIL149C/MLP2] | 2.95 ± 0.19 | 3.46 ± 0.17 | 3.31 ± 0.22 | 3.45 ± 0.12
ESFESYHNLTTHNSYEK [RPN6] | 3.19 ± 0.068 | 3.17 ± 0.065 | 2.84 ± 0.075 | 3.28 ± 0.044
NNGSSDKSLDSSNASFN [MED1] | 2.92 ± 0.13 | 3.04 ± 0.15 | 3.08 ± 0.22 | 2.98 ± 0.12
SSLALVFALHKYKPTPL [SMC4] | 2.18 ± 0.052 | 2.18 ± 0.074 | 2.17 ± 0.088 | 2.93 ± 0.055
PPKPRKVLQLLRLTRIN [RPL7A] | 1.95 ± 0.095 | 1.57 ± 0.077 | 1.7 ± 0.12 | 1.09 ± 0.061
MFLYILKHLEEMGKLRE [RRI2] | 3.11 ± 0.11 | 3.16 ± 0.11 | 3.04 ± 0.078 | 3.16 ± 0.051
SNLSPDLKFKRHKNKHI [DSN1] | 2.71 ± 0.1 | 2.58 ± 0.15 | 2.28 ± 0.077 | 2.17 ± 0.13
SVPLMINAKNIAFASNY [RRP43] | 1.57 ± 0.06 | 1.53 ± 0.051 | 1.27 ± 0.14 | 1.41 ± 0.052
KKNIDYQNRSTRSQFCL [RRI1] | 3.01 ± 0.039 | 2.94 ± 0.04 | 2.88 ± 0.034 | 3.079 ± 0.026
SQTTQLAGMDVEDALDK [FAS2] | 3.31 ± 0.094 | 3.47 ± 0.11 | 3.31 ± 0.083 | 3.62 ± 0.071
LESADKQLEKRDYQRIN [POP4] | 2.71 ± 0.052 | 2.72 ± 0.055 | 2.64 ± 0.065 | 3.18 ± 0.059
KKKAFTKYSAKYAQDGA [RPL3] | 3.03 ± 0.12 | 3.38 ± 0.09 | 3.1 ± 0.054 | 3.04 ± 0.032
MGVPIYGIVAMAATATD [FAS2] | 1.34 ± 0.068 | 1.52 ± 0.052 | 1.54 ± 0.089 | 1.47 ± 0.051

— the supplement of paper PMC9732359
